Results from publication PMC13478228 (2026).

Assays:
[1] = biological target: T1, human cytosolic seryl-tRNA synthetase (SerRS), tag-free, purified separately (human, UniProt P49591 1-514); test: 2000 uM ADPR
[2] = biological target: T1, human cytosolic seryl-tRNA synthetase …; test: 2000 uM NAD+
[3] = biological target: T1, human cytosolic seryl-tRNA synthetase …; test: 80 uM ADPR

B1: human sirtuin 2 (SIRT2), C-terminal His tag (enzyme)
chain: MAEPDPSHPLETQAGKVQEAQDSDSDSEGGAAGGEADMDFLRNLFSQTLSLGSQKERLLDELTLEGVARYMQSERCRRVICLVGAGISTSAGIPDFRSPSTGLYDNLEKYHLPYPEAIFEISYFKKHPEPFFALAKELYPGQFKPTICHYFMRLLKDKGLLLRCYTQNIDTLERIAGLEQEDLVEAHGTFYTSHCVSASCRHEYPLSWMKEKIFSEVTPKCEDCQSLVKPDIVFFGESLPARFFSCMQSDFLKVDLLLVMGTSLQVQPFASLISKAPLSTPRLLINKEKAGQSDPFLGMIMGLGGGMDFDSKKAYRDVAWLGECDQGCLALAELLGWKKELEDLVRREHASIDAQSGAGVPNPSTSASPKKSPPPAKDEARTTEREKPQ
Kd [1]: 430 nM
Kd [2]: 530 nM
Kd [3]: 530 nM
